This note sets out measurements from paper PMC4376295 (Nature communications, 2014).

The series “SEC-coupled SAXS” deals with the molecule itself. As to the kind of experiment: SEC-coupled SAXS.
The target in series [1] is T1, HerA harbouring both M51L and M82L mutations (Sulfolobus solfataricus, UniProt Q97WG8 1-500, M51L | M82L).
T1 sequence (looked up): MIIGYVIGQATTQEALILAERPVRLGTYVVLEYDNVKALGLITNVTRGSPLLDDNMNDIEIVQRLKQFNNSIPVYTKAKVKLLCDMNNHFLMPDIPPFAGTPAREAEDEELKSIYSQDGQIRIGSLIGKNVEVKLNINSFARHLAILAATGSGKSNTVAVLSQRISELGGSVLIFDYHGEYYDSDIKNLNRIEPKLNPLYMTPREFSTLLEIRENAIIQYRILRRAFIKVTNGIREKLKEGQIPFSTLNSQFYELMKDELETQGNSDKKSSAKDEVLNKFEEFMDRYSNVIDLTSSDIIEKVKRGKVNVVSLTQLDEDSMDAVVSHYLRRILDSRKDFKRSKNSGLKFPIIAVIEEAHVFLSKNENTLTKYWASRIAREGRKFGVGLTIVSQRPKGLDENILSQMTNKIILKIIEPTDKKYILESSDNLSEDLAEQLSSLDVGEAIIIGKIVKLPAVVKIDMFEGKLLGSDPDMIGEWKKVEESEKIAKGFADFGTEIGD
As to the kind of experiment: SEC-coupled SAXS.

Series [2] deals with T2, native HerA (S. solfataricus, Sso2251) (Sulfolobus solfataricus, UniProt Q97WG8 1-500).
T2 sequence (looked up): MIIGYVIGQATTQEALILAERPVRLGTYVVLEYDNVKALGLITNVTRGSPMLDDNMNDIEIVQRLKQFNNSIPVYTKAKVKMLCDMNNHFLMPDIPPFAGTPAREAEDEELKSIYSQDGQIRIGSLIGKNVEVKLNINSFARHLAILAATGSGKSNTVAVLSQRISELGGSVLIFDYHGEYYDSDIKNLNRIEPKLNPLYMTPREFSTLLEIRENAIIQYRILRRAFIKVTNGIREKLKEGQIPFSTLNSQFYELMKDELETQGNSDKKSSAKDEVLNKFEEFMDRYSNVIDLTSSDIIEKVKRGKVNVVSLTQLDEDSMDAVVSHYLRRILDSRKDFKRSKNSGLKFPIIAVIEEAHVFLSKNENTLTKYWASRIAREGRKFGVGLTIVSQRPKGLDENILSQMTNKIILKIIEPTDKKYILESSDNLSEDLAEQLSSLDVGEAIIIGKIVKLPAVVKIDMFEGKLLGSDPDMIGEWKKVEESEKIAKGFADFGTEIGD
The experiment in a line: SEC.

B1: NurA D58A (nuclease inactivated) (enzyme, Sulfolobus solfataricus, UniProt Q97WH1 1-339, looked up)
chain: MIRKIYDKLVESHNEIKNQIYNIANYLKQEIQDKVNEYWNEYVINHEQSETCKFVAIAGGSFGRPMRIGIVYAVGAESVIGDNKGVKTLSEDGQIGIFKPGNDAQERISLLMEALELSLALRDGSKGDYILMDGSLSKKIGNKVDIQQFSDEELKLIRNVDLNGIISIKDERKMRDLLMLLNQFLVSKIIEEYDGNVLWISKVSRGRDLFGTDYPDITVLELFTEKRGFSKLIIKNIDIEKISEIPEIEVLRKMEYTTFYTRLDNGKRVIRVDIVGRVDEKIVKEIMDRLSGVSIKGYPFPLLKAHMDVRFSAMDREKIIKLVGSKLHKDIEWWPSQFY
Consider B1, for which the binding result (in the series “SEC-coupled SAXS”; in series [1]) was “binds” throughout.

B2: native NurA (S. solfataricus) (enzyme, Sulfolobus solfataricus, UniProt Q97WH1 1-339, looked up)
chain: MIRKIYDKLVESHNEIKNQIYNIANYLKQEIQDKVNEYWNEYVINHEQSETCKFVAIDGGSFGRPMRIGIVYAVGAESVIGDNKGVKTLSEDGQIGIFKPGNDAQERISLLMEALELSLALRDGSKGDYILMDGSLSKKIGNKVDIQQFSDEELKLIRNVDLNGIISIKDERKMRDLLMLLNQFLVSKIIEEYDGNVLWISKVSRGRDLFGTDYPDITVLELFTEKRGFSKLIIKNIDIEKISEIPEIEVLRKMEYTTFYTRLDNGKRVIRVDIVGRVDEKIVKEIMDRLSGVSIKGYPFPLLKAHMDVRFSAMDREKIIKLVGSKLHKDIEWWPSQFY
For B2, the binding result in series [2] is given as “binds”.
